Source: US20210269525A1

Legend:
[1] = target: human CD3e (T-cell surface glycoprotein CD3 epsilon chain) (human) (UniProt P07766); test: flow cytometry, human PBMC, negative control of unstated make-up
[2] = target: monkey CD3e (Macaca fascicularis) on PBMC (Macaca fascicularis) (UniProt Q95LI5); test: flow cytometry, Macaca fascicularis PBMC, negative control of unstated make-up
[3] = target: monkey CD3e (Macaca fascicularis) on PBMC (Macaca fascicularis) (UniProt Q95LI5); test: flow cytometry, Macaca fascicularis PBMC, control sample (Table 2: 1:400), AF647-anti-hIgG
[4] = target: monkey CD3e (Macaca fascicularis) on PBMC (Macaca fascicularis) (UniProt Q95LI5); test: flow cytometry, Macaca fascicularis PBMC, control sample (Table 2: 1:400), AF647-anti-mIgG
[5] = target: human CD3e (T-cell surface glycoprotein CD3 epsilon chain) (human) (UniProt P07766); test: flow cytometry, human PBMC of subject 1 (PBMC human1#), negative control, AF647-anti-mIgG, PerCP anti-hTcRβ
[6] = target: human CD3e (T-cell surface glycoprotein CD3 epsilon chain) (human) (UniProt P07766); test: flow cytometry, human PBMC of subject 2 (PBMC human2#), negative control, AF647-anti-mIgG, PerCP anti-hTcRβ

Chain of monkey CD3e (Macaca fascicularis) on PBMC (Macaca fascicularis) (Q95LI5 22-198 limits assumed): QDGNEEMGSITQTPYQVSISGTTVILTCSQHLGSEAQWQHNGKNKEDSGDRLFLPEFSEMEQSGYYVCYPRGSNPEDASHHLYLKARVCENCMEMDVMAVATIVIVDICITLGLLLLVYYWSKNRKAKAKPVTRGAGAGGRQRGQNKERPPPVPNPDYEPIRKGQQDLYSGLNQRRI

## NC
[1]
  upper left quadrant, percent of cells AF647+ / hTcRβ-PerCP-: 0.24%
[2]
  upper left quadrant, percent of cells AF647+ / hTcRβ-PerCP-: 0.162%

## hIgG (antibody)
[3]
  FL4-H, SSC-H subset (percent of cells in the AF647-positive gate): 3.27%

## mIgG (antibody)
[4]
  FL4-H, SSC-H subset (percent of cells in the AF647-positive gate): 0.58%
[5]
  Q1, percent of cells AF647+ / hTcRβ-PerCP-: 0.00361%
  Q2, percent of cells AF647+ / hTcRβ-PerCP+: 0.19%
[6]
  Q1, percent of cells AF647+ / hTcRβ-PerCP-: 0.0036%
  Q2, percent of cells AF647+ / hTcRβ-PerCP+: 0.21%
